For test [1], the target named is BcsD (purified alone via a cleavable N-terminal hexahistidine tag, Bcs^H^isD) (G. hansenii). Briefly: cryo-EM structure.
Test [2] concerns the target N-terminally hexahistidine-tagged full-length BcsH (Bcs^H^isH^FL) (G. hansenii). Briefly: SDS-PAGE and Western blot. (A western blot detects proteins with antibodies after separation by electrophoresis.)

In article PMC9757748 one finds stoichiometry N data, which are given here for two substances.

For orientation: stoichiometry N means a count of units in the complex or per binding partner.

“BcsD (purified alone via a cleavable N-terminal hexahistidine tag, Bcs^H^isD) (natural protein)” came in with a stoichiometry N in test [1] of 8.
In test [2], “N-terminally hexahistidine-tagged full-length BcsH (Bcs^H^isH^FL) (natural protein)” came in with a stoichiometry N of 2.
